Changes are numbered by the printed parent chain. “And” between values parts separate entries of the source, which are not always exact repeats. Identical values can stand only once.
B1: h193 antibody No. 19 (h193-H3 / h193-K1) (antibody, V domains shown)
VH: EVQLVESGGGLVQPGGSLRLSCAASGFSLSSSYWISWVRQAPGKGLEWIGSIDSGSVGITYYATWAKGRFTISRDNSKNTLYLQMNSLRAEDTAVYYCARHGDNWALDLWGQGTLVTVSS
VL: DIQMTQSPSTLSASVGDRVTITCQASQSINSWLAWYQQKPGKAPKLLIYKASTLASGVPSRFSGSGSGTEFTLTISSLQPDDFATYYCQHGYIRGDLDNVFGGGTKVEIK
B2: h193 antibody No. 20 (h193-H3 / h193-K2) (antibody, V domains shown)
VH: B1 VH
VL: B1 VL with I2L, Q3V, A43P, P59S, F83V
B3: h193 antibody No. 32 (h193-H6 / h193-K2) (antibody, V domains shown)
VH: B1 VH with W65S
VL: B1 VL with I2L, Q3V, A43P, P59S, F83V
B4: h193 antibody No. 35 (h193-H7 / h193-K1) (antibody, V domains shown)
VH: B1 VH with A66V
VL: B1 VL
B5: h193 antibody No. 36 (h193-H7 / h193-K2) (antibody, V domains shown)
VH: B1 VH with A66V
VL: B1 VL with I2L, Q3V, A43P, P59S, F83V
B6: h193 antibody No. 37 (h193-H7 / h193-K3) (antibody, V domains shown)
VH: B1 VH with A66V
VL: B1 VL with Q24R
B7: h193 antibody No. 24 (h193-H4 / h193-K2) (antibody, V domains shown)
VH: B1 VH with I49V, G50S
VL: B1 VL with I2L, Q3V, A43P, P59S, F83V
B8: h193 antibody No. 27 (h193-H5 / h193-K1) (antibody, V domains shown)
VH: B1 VH with S51V
VL: B1 VL
B9: h193 antibody No. 33 (h193-H6 / h193-K3) (antibody, V domains shown)
VH: B1 VH with W65S
VL: B1 VL with Q24R
B10: h193 antibody No. 31 (h193-H6 / h193-K1) (antibody, V domains shown)
VH: B1 VH with W65S
VL: B1 VL
B11: h193 antibody No. 23 (h193-H4 / h193-K1) (antibody, V domains shown)
VH: B1 VH with I49V, G50S
VL: B1 VL
B12: h193 antibody No. 28 (h193-H5 / h193-K2) (antibody, V domains shown)
VH: B1 VH with S51V
VL: B1 VL with I2L, Q3V, A43P, P59S, F83V

What follows are binders tested against T1, human LILRB4 extracellular domain (ECD) recombinant protein (human, UniProt Q8NHJ6 22-259) (assay: ELISA).
T1 construct: extracellular domain; also called LILRB4 ECD; LILRB4-ECD

Binder	EC50
B1	0.294 µg/mL and 1.96 nM
B2	0.272 µg/mL and 1.81 nM
B3	0.262 µg/mL and 1.74 nM
B4	0.162 µg/mL and 1.08 nM
B5	0.145 µg/mL and 0.96 nM
B6	0.163 µg/mL and 1.08 nM
B7	0.467 µg/mL and 3.11 nM
B8	> 6 nM
B9	0.32 µg/mL and 2.13 nM
B10	0.314 µg/mL and 2.09 nM
B11	0.461 µg/mL and 3.07 nM

These binders were tested against T1, human LILRB4 extracellular domain (ECD) … (assay: Octet).

Binder	Kd [nM]	koff [s⁻¹]	kon [M⁻¹ s⁻¹]
B1	2.03	0.000294	145000
B2	1.67	0.00025	150000
B3	2.38	0.000362	152000
B4	1.05	0.000148	141000
B5	1.01	0.000144	143000
B6	0.984	0.00014	143000
B7	4.41	0.000595	135000
B9	2.33	0.000345	148000
B10	2.61	0.000376	144000
B11	5.83	0.000731	125000

Each binder was assayed against LILRB1 (human (not printed on the sheet), UniProt Q8NHL6) (assay: LILR reporter cells on coated antibody, GFP positive (%)).
Procedure: (§1) FIGS. 41A-41M illustrate specific binding of h193 antibodies to LILRB4 protein. FIGS. 41A-41L illustrate the specificity of h193 antibodies determined by LILR reporter assays, in which LILR reporter cells are added to the plates coated with h193 antibodies. The binding of h193 antibodies to the ECD of the LILR member on the surface of the reporter cells induced GFP signal. FIG. 41M illustrates the specificity of an exemplary h193 antibody determined by ELISA. LILRA and LILRB recombinant proteins were coated on high absorption 96-well plates. Serial diluted (5-fold) mAb h193 were added to the coated/blocked plates and detected using goat anti-human IgG F(ab)2 conjugated HRP as secondary antibody.

Chain of LILRB1 (Q8NHL6 24-461 limits assumed): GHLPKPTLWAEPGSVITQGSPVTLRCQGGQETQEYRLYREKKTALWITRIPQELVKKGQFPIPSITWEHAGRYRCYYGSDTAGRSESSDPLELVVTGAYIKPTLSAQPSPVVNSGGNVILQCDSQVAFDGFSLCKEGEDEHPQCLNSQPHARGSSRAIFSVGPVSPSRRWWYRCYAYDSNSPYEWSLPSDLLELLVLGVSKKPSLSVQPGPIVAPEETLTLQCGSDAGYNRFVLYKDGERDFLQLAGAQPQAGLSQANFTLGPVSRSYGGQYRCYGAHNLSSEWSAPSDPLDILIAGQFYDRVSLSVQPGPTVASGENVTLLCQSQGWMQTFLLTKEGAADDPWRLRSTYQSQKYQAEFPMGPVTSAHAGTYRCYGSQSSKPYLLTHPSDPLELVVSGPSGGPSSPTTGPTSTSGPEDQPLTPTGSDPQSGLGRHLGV

Binder	binding result
B1	no binding
B2	no binding
B12	no binding
B3	no binding
B4	no binding
B5	no binding
B6	no binding
B7	no binding
B8	no binding
B9	no binding
B10	no binding
B11	no binding

The binders below were run against LILRB2 (human (not printed on the sheet), UniProt Q8N423) in the same assay as above.
Procedure: as §1

Chain of LILRB2 (Q8N423 22-460 limits assumed): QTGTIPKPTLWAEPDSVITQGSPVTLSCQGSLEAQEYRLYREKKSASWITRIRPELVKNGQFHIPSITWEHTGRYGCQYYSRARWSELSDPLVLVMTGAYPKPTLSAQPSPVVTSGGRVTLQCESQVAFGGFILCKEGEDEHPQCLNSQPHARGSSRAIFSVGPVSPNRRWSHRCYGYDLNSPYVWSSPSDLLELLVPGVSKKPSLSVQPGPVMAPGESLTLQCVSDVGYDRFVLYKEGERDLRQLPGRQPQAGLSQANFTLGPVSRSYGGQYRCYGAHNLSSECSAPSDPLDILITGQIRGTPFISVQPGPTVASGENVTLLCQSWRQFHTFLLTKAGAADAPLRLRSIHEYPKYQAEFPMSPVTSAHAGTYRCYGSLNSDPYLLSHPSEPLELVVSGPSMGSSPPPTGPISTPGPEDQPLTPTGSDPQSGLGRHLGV

Binder	binding result
B1	no binding
B2	no binding
B12	no binding
B3	no binding
B4	no binding
B5	no binding
B6	no binding
B7	no binding
B8	no binding
B9	no binding
B10	no binding
B11	no binding

The binders below were run against LILRB3 (human (not printed on the sheet), UniProt O75022) in the same assay as above.
Procedure: as §1

Chain of LILRB3 (O75022 24-443 limits assumed): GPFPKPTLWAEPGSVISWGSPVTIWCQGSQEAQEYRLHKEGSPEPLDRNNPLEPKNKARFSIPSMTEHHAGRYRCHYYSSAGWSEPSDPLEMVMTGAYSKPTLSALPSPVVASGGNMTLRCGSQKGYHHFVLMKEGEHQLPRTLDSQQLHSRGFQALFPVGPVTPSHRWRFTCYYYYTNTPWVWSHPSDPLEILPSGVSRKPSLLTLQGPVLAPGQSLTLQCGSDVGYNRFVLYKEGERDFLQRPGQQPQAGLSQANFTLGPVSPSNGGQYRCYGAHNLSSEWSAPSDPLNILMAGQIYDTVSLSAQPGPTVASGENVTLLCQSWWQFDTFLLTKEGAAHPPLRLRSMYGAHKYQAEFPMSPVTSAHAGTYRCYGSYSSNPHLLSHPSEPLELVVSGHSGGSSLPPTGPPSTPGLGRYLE

Binder	binding result
B1	no binding
B2	no binding
B12	no binding
B3	no binding
B4	no binding
B5	no binding
B6	no binding
B7	no binding
B8	no binding
B9	no binding
B10	no binding
B11	no binding

These binders were tested against LILRB5 (human (not printed on the sheet), UniProt O75023) in the same assay as above.
Procedure: as §1

Chain of LILRB5 (O75023 24-458 limits assumed): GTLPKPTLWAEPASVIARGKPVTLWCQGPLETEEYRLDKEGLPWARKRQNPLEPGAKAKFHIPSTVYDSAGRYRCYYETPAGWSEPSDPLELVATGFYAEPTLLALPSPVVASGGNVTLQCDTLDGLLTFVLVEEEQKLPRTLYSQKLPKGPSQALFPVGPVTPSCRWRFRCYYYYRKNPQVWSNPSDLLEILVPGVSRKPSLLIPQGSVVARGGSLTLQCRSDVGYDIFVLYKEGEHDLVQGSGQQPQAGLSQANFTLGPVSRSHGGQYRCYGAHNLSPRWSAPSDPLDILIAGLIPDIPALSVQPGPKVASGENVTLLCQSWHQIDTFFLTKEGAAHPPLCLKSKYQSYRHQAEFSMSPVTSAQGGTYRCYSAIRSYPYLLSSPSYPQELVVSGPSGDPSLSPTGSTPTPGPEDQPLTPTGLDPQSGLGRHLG

Binder	binding result
B1	no binding
B2	no binding
B12	no binding
B3	no binding
B4	no binding
B5	no binding
B6	no binding
B7	no binding
B8	no binding
B9	no binding
B10	no binding
B11	no binding

Each binder was assayed against LILRA1 (human (not printed on the sheet), UniProt O75019) in the same assay as above.
Procedure: as §1

Chain of LILRA1 (O75019 17-461 limits assumed): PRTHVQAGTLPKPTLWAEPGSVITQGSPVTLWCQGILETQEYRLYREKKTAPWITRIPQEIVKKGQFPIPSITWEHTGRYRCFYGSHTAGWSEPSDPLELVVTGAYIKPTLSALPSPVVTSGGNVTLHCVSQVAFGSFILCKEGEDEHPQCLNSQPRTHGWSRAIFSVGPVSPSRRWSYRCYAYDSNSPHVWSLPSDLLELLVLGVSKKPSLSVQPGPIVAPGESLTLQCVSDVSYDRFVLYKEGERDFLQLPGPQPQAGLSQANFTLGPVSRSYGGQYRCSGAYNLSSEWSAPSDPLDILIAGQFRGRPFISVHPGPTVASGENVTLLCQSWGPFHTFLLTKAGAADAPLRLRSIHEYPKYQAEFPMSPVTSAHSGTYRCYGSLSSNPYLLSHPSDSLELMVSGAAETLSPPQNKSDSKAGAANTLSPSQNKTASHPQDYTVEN

Binder	binding result
B1	no binding
B2	no binding
B12	no binding
B3	no binding
B4	no binding
B5	no binding
B6	no binding
B7	no binding
B8	no binding
B9	no binding
B10	no binding
B11	no binding

The binders below were run against LILRA2 (human (not printed on the sheet), UniProt Q8N149) in the same assay as above.
Procedure: as §1

Chain of LILRA2 (Q8N149 24-449 limits assumed): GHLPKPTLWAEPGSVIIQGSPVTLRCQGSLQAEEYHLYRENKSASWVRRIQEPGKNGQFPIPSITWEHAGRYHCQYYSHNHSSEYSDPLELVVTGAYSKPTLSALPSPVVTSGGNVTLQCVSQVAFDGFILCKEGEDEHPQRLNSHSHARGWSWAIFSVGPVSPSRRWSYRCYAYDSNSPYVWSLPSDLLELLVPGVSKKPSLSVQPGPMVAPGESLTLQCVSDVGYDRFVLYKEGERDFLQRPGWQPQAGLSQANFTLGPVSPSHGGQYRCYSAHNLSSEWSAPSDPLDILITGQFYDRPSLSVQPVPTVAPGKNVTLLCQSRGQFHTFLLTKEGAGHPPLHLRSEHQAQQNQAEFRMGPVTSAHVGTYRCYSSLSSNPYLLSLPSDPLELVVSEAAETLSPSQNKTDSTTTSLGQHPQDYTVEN

Binder	binding result
B1	no binding
B2	no binding
B12	no binding
B3	no binding
B4	no binding
B5	no binding
B6	no binding
B7	no binding
B8	no binding
B9	no binding
B10	no binding
B11	no binding

Each binder was assayed against LILRA3 (human (not printed on the sheet), UniProt Q8N6C8) in the same assay as above.
Procedure: as §1

Chain of LILRA3 (Q8N6C8 24-439 limits assumed): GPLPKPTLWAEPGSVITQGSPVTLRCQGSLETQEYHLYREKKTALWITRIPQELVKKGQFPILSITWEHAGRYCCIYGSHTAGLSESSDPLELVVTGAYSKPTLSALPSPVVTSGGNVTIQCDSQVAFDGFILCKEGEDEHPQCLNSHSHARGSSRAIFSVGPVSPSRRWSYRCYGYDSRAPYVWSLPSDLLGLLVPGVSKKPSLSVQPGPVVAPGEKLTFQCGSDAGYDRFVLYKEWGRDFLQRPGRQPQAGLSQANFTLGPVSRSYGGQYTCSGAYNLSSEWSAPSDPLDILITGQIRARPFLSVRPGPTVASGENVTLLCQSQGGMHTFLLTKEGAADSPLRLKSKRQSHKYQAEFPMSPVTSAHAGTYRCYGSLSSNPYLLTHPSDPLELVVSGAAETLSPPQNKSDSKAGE

Binder	binding result
B1	no binding
B2	no binding
B12	no binding
B3	no binding
B4	no binding
B5	no binding
B6	no binding
B7	no binding
B8	no binding
B9	no binding
B10	no binding
B11	no binding

These binders were tested against LILRA4 (human (not printed on the sheet), UniProt P59901) in the same assay as above.
Procedure: as §1

Chain of LILRA4 (P59901 24-446 limits assumed): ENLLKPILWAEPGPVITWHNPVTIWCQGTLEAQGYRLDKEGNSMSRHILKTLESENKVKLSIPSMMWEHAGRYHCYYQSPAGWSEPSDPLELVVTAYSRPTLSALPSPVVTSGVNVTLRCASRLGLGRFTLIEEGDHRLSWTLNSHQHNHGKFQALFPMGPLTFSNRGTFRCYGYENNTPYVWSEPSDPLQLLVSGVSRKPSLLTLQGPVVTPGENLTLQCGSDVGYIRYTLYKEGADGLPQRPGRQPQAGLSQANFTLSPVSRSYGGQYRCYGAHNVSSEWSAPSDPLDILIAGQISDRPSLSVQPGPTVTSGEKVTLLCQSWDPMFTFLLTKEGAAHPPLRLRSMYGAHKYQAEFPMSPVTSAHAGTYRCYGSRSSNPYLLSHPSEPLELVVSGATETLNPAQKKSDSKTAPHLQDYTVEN

Binder	binding result
B1	no binding
B2	no binding
B12	no binding
B3	no binding
B4	no binding
B5	no binding
B6	no binding
B7	no binding
B8	no binding
B9	no binding
B10	no binding
B11	no binding

What follows are binders tested against LILRA5 (human (not printed on the sheet), UniProt A6NI73) in the same assay as above.
Procedure: as §1

Chain of LILRA5 (A6NI73 42-268 limits assumed): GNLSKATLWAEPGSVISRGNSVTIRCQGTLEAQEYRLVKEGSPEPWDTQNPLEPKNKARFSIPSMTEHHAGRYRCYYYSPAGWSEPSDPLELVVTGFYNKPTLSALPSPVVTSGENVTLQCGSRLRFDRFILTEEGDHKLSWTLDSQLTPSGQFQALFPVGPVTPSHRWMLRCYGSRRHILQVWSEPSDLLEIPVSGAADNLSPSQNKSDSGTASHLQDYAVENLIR

Binder	binding result
B1	no binding
B2	no binding
B12	no binding
B3	no binding
B4	no binding
B5	no binding
B6	no binding
B7	no binding
B8	no binding
B9	no binding
B10	no binding
B11	no binding

The binders below were run against LILRA6 (human (not printed on the sheet), UniProt Q6PI73) in the same assay as above.
Procedure: as §1

Chain of LILRA6 (Q6PI73 24-447 limits assumed): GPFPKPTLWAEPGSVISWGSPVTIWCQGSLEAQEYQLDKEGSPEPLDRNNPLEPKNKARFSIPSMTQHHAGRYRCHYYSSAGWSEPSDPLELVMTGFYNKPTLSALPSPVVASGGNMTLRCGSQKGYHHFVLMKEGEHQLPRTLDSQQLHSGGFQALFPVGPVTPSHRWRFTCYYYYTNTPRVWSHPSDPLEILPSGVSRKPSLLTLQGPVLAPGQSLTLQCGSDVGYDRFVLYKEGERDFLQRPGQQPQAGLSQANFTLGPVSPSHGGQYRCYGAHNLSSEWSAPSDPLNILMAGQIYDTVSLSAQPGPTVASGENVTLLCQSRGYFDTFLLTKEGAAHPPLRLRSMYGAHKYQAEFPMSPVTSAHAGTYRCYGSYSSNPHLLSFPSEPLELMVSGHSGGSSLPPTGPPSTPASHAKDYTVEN

Binder	binding result
B1	no binding
B2	no binding
B12	no binding
B3	no binding
B4	no binding
B5	no binding
B6	no binding
B7	no binding
B8	no binding
B9	no binding
B10	no binding
B11	no binding
